Test results from a protein production outcome set (Wang et al. 2014).

Assay: label from the status in PepcDB records
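Further: failed if final PepcDB status was selected cloned or expressed and not failed if soluble or beyond.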

Sequence | protein production
MMPKRFNTSGFDTTLRLPSYYGFLHLTQSLTLNSRVFYGARHVTPPAIRIGSNPVQSLLLFRAPTQLTGWNRSSRDLLGRRVSFSDRSDGVDLLSSSPILSTNPNLDDSLTVIALPLPHKPLIPGFYMPIHVKDPKVLAALQESTRQQSPYVGAFLLKDCASTDSSSRSETEDNVVEKFKVKGKPKKKRRKELLNRIHQVGTLAQISSIQGEQVILVGRRRLIIEEMVSEDPLTVRVDHLKDKPYDKDNAVIKASYVEVISTLREVLKTNSLWRDQDIGDFSYQHLADFGAGISGANKHKNQGVLTELDVHKRLELTLELVKKQVEINKIKETDDGSSLSAKIRVRIDTKRDKIPKHVIKVMEEEFTKLEMLEENYSDFDLTYNYLHWLTVLPWGNFSYENFDVLRAKKILDEDHYGLSDVKERILEFIAVGRLRGTSQGKIICLSGPPGVGKTSIGRSIARALDRKFFRFSVGGLSDVAEIKGHCQTYVGAMPGKMVQCLKSVGTANPLILFDEIDKLGRCHTGDPASALLEVMDPEQNAKFLDHFLNVTIDLSKVLFVCTANVIEMIPGPLLDRMEVIDLSGYVTDEKMHIARDYLVKKTCRDCGIKPEHVDLSDAALLSLIENYCREAGVRNLQKQIEKIYRKVALELVRQGAVSFDVTDTKDTKSLAKTDSEVKRMKVADIMKILESATGDSTESKTKQSGLVAKTFEKVMIDESNLADYVGKPVFQEEKIYEQTPVGVVMGLAWTSMGGSTLYIETTFVEEGLGKGGLHITGQLGDVMKESAQIAHTVARRIMFEKEPENLFFANSKLHLHVPEGATPKDGPSAGCTMITSFLSLAMKKLVRKDLAMTGEVTLTGRILPIGGVKEKTIAARRSQIKTIIFPEANRRDFEELAENMKEGLDVHFVDEYEKIFDLAFNYDH | failed
MMQKPITEIIIVGGGTAGWITAGLLAAEHNVDKGVLAHSPKLNITLIESPDVATIGVGEGTWPSMRSTLSKIGIDENDFIRQCDASFKQGSRFINWCKDPQSNVADSYLHPFSLPHGHQELDLCPYWLPHAEQVSFAEAVCSQQVLTQLGLAPKSIVTAQYHFQNNYGYHLNAAKFSQLLTEHCTQKLGVTHIRDHVSQIINNQHGDIEKLITKQNGEISGQLFIDCTGAKSLLLGEHLQVPFLSQKSVLFNDRALAIQVPYSDANSPIASCTHSTAQPNGWIWDIGLPTRKGVGYVYSSSHTNDIDAQKTLFNYLGVDGAAADKLEPRQLAINPGYRAKCWQNNCIAIGMAAGFIEPLEASALALIEWTASTLAQQLPPNRMVMDTISARVNERYQQHWQQIIDFLKLHYVISQRQEDRYWRDHRESNSIPDSLQAMLELWRYQTPSQQDISYKEALFPAASFQYVLYGMSFNTQLPTHVKPSMQQLAQRLFNDNQQRTQALSKNLPTNRELLDKVAQYGFPKL | not failed
MMRAWIQLVIAIGVEIVGTSLLKLSSGFKYPLIGIVGMLLYGLAIFSFSRALSKIPLSVGYAIWAGVGTAATGLIGIWAFGEILTGLKTLGFMAIITGVILLNMPAKTTKSTTATPRSARWRTRFNR | failed
MMRIGLFLLTNLAVLVVAGIILSLFGVGSYHGAGGLNLGNLLVICFVFGMVGSLISLLMSKWMAKKTTGTEIIDPNAPRNQAEAWLLQTVAELSQRAGIQMPEVGIFPSYQSNAFATGWNKNDALVSVSTGLMERMNKDELRAVLAHEIGHVANGDMVTLALIQGVVNAFVMFFARVVGDFIDRNVFGRQDGEAPGMGYFAITIVLDIVFGILASAIVMWFSRHREYRADEAGARLAGKQAMISALLRLQAESEMPDQMPKEMKAFAIAEGKEQGFSLAALFQTHPSIEQRVAALQQLNCP | failed
MMRVGIIGAGNIGHMHAEAVAACENTLLTGVFDLDRERAQSLARASGTVAFASPDELYKASDGVVVASPNRTHADYAREAVAYGRSVLCEKPMAVSLLQAADMRALAAVAPGVCAVGFNYRYLNVIREARNRIGEGMLGRVVHVDVAFKRASALTRQHFTWRDSAAEGHTSGALGDLGVHLIDMLHHLFRSPVDLASCQVALRTKVAAKGGHAVEVDDHAFVSGRIEGGPSFTLTASKASQPEETGFTLAAMGSRGDLSHDSQDGPVLHLRTGIDWEQVKLLGPSRLDDPRGEVTGWGDSFLDQLHDWAGAVTASQRSGTLADFEDGYQAQQVLQELLRIGGRM | failed
MMRVLHISDTHFGTEREPVVHALHALADTLRPDLVVLGGDITQRARRGQFAAARRFIQALQRPVLAVPGNHDIPLFNLAARLFDPYGNYRRALGAVLEPVYEDDRLLAIGVNSTRAARRKNGEVSRTQAQRVAQRLRDARPGQLRVVALHHPVHAMVESDQRNLLIGREFAVPAWVDAGVDLILGGHIHLPYVAPLHGKAGEAGRRAWTVQAGTAVSRRVRGRVPNSVNLIDYAAQADSPACTVQRWDFQTDSGAFVLFGQQVLALNRARG | failed
